Data reported in publication doi:10.1101/2024.06.17.598829 (bioRxiv, 2024).
Values joined by “and” are separate entries in the source; they are usually repeats but may differ in a detail not shown here. Equal entries are not always repeated.

Biological target: the molecule itself
Assay: SEC

B1: MBP:NPH3-C104 (domain or fragment, Arabidopsis, UniProt Q9FMF5 643-746, looked up)
chain: PQSFQEGWAAAKKDINTLKFELETVKTKYVELQNEMEVMQRQFEKTGKVKNTPSSSAWTSGWKKLSKLTKMSGQESHDISSGGEQAGVDHPPPRKPRRWRNSIS
- stoichiometry N: 3 and 6
